The record followed here is US20170015742A1 (published 2017).

Substitutions are numbered along the chain they refer to.

B1: CODV003 (bispecific antibody, human IgG1, kappa, L234A L235A)
heavy: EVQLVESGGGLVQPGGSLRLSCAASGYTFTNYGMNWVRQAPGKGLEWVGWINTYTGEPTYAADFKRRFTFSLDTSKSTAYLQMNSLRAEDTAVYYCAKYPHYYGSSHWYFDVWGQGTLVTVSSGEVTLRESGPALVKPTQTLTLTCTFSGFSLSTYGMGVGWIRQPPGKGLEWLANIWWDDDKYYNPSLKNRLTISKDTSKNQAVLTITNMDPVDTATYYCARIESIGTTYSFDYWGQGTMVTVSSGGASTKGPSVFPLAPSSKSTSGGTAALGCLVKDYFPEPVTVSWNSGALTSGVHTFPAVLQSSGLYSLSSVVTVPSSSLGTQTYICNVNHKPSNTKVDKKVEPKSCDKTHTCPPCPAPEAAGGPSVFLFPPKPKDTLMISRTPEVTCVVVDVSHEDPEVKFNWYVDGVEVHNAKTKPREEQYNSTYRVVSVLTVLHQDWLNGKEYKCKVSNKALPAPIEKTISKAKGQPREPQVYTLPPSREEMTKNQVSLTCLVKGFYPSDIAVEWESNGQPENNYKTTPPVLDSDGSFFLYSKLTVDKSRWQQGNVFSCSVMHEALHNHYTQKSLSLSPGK
light: DFQLTQSPSSLSASVGDRVTITCERSSGDIGDSYVSWYQQKPGKAPKNVIYADDQRPSGVPSRFSGSGSGNSASLTISSLQPEDFATYFCQSYDINIDIVFGQGTKVEIKGGGSGGGDIQMTQSPSSLSASVGDRVTITCSASQDISNYLNWYQQKPGKAPKVLIYFTSSLHSGVPSRFSGSGSGTDFTLTISSLQPEDFATYYCQQYSTVPWTFGQGTKVEIKGGGSGRTVAAPSVFIFPPSDEQLKSGTASVVCLLNNFYPREAKVQWKVDNALQSGNSQESVTEQDSKDSTYSLSSTLTLSKADYEKHKVYACEVTHQGLSSPVTKSFNRGEC
notes: Anti-human VEGF-A/anti-human PDGF-BB cross-over DVD-Ig (CO-DVD-Ig); also called PR-1565044
B2: CODV010 (bispecific antibody, human IgG1, kappa, L234A L235A)
heavy: EVTLRESGPALVKPTQTLTLTCTFSGFSLSTYGMGVGWIRQPPGKALEWLANIWWDDDKYYNPSLKNRLTISKDTSKNQVVLTMTNMDPVDTATYYCARIESIGTTYSFDYWGQGTMVTVSSGEVQLVQSGSELKKPGASVKVSCKASGYTFTNYGMYWVRQAPGQGLEWMGWINTETGKPTYADDFKGRFVFSLDTSVSTAYLQISSLKAEDTAVYYCARTNYYYRSYIFYFDYWGQGTMVTVSSGGASTKGPSVFPLAPSSKSTSGGTAALGCLVKDYFPEPVTVSWNSGALTSGVHTFPAVLQSSGLYSLSSVVTVPSSSLGTQTYICNVNHKPSNTKVDKKVEPKSCDKTHTCPPCPAPEAAGGPSVFLFPPKPKDTLMISRTPEVTCVVVDVSHEDPEVKFNWYVDGVEVHNAKTKPREEQYNSTYRVVSVLTVLHQDWLNGKEYKCKVSNKALPAPIEKTISKAKGQPREPQVYTLPPSREEMTKNQVSLTCLVKGFYPSDIAVEWESNGQPENNYKTTPPVLDSDGSFFLYSKLTVDKSRWQQGNVFSCSVMHEALHNAYTQKSLSLSPGK
light: DTVLTQSPATLSLSPGERATLSCRASESVSTHMHWYQQKPGQAPRLLIYGASNLESGVPARFSGSGSGTDFTLTISSLEPEDFAVYFCQQSWNDPFTFGQGTKLEIKGGGSGGGEFVLTQSPGTLSLSPGERATLSCERSSGDIGDSYVSWYQQKPGQAPRLVIYADDQRPSGIPDRFSGSGSGTDFTLTISRLEPEDFAVYYCQSYDINIDIVFGGGTKVEIKGGGSGRTVAAPSVFIFPPSDEQLKSGTASVVCLLNNFYPREAKVQWKVDNALQSGNSQESVTEQDSKDSTYSLSSTLTLSKADYEKHKVYACEVTHQGLSSPVTKSFNRGEC
notes: Anti-human VEGF-A/anti-human PDGF-BB cross-over DVD-Ig (CO-DVD-Ig); also called PR-1571823
B3: CODV009 (bispecific antibody, human IgG1, kappa, L234A L235A)
heavy: EVQLVQSGSELKKPGASVKVSCKASGYTFTNYGMYWVRQAPGQGLEWMGWINTETGKPTYADDFKGRFVFSLDTSVSTAYLQISSLKAEDTAVYYCARTNYYYRSYIFYFDYWGQGTMVTVSSGEVTLRESGPALVKPTQTLTLTCTFSGFSLSTYGMGVGWIRQPPGKALEWLANIWWDDDKYYNPSLKNRLTISKDTSKNQVVLTMTNMDPVDTATYYCARIESIGTTYSFDYWGQGTMVTVSSGGASTKGPSVFPLAPSSKSTSGGTAALGCLVKDYFPEPVTVSWNSGALTSGVHTFPAVLQSSGLYSLSSVVTVPSSSLGTQTYICNVNHKPSNTKVDKKVEPKSCDKTHTCPPCPAPEAAGGPSVFLFPPKPKDTLMISRTPEVTCVVVDVSHEDPEVKFNWYVDGVEVHNAKTKPREEQYNSTYRVVSVLTVLHQDWLNGKEYKCKVSNKALPAPIEKTISKAKGQPREPQVYTLPPSREEMTKNQVSLTCLVKGFYPSDIAVEWESNGQPENNYKTTPPVLDSDGSFFLYSKLTVDKSRWQQGNVFSCSVMHEALHNAYTQKSLSLSPGK
light: EFVLTQSPGTLSLSPGERATLSCERSSGDIGDSYVSWYQQKPGQAPRLVIYADDQRPSGIPDRFSGSGSGTDFTLTISRLEPEDFAVYYCQSYDINIDIVFGGGTKVEIKGGGSGGGDTVLTQSPATLSLSPGERATLSCRASESVSTHMHWYQQKPGQAPRLLIYGASNLESGVPARFSGSGSGTDFTLTISSLEPEDFAVYFCQQSWNDPFTFGQGTKLEIKGGGSGRTVAAPSVFIFPPSDEQLKSGTASVVCLLNNFYPREAKVQWKVDNALQSGNSQESVTEQDSKDSTYSLSSTLTLSKADYEKHKVYACEVTHQGLSSPVTKSFNRGEC
notes: Anti-human VEGF-A/anti-human PDGF-BB cross-over DVD-Ig (CO-DVD-Ig); also called PR-1571821
B4: CODV004 (bispecific antibody, human IgG1, kappa, L234A L235A)
heavy: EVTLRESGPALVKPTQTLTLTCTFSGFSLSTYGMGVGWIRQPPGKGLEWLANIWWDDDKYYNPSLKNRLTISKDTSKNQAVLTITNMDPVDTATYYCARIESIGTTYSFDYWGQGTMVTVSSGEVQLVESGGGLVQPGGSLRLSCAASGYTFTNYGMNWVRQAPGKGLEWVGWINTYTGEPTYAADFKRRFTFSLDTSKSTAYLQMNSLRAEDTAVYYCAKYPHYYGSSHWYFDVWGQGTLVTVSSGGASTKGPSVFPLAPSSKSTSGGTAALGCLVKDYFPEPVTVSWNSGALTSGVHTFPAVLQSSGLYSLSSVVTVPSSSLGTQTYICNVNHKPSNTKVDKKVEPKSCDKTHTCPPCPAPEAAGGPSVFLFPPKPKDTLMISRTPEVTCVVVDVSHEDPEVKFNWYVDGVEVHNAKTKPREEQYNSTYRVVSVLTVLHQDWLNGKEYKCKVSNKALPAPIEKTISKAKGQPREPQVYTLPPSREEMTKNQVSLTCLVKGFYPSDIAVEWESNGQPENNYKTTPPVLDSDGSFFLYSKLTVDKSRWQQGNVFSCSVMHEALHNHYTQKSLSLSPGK
light: DIQMTQSPSSLSASVGDRVTITCSASQDISNYLNWYQQKPGKAPKVLIYFTSSLHSGVPSRFSGSGSGTDFTLTISSLQPEDFATYYCQQYSTVPWTFGQGTKVEIKGGGSGGGDFQLTQSPSSLSASVGDRVTITCERSSGDIGDSYVSWYQQKPGKAPKNVIYADDQRPSGVPSRFSGSGSGNSASLTISSLQPEDFATYFCQSYDINIDIVFGQGTKVEIKGGGSGRTVAAPSVFIFPPSDEQLKSGTASVVCLLNNFYPREAKVQWKVDNALQSGNSQESVTEQDSKDSTYSLSSTLTLSKADYEKHKVYACEVTHQGLSSPVTKSFNRGEC
notes: Anti-human VEGF-A/anti-human PDGF-BB cross-over DVD-Ig (CO-DVD-Ig); also called PR-1565051
B5: CODV005 (bispecific antibody, human IgG1, kappa, L234A L235A)
heavy: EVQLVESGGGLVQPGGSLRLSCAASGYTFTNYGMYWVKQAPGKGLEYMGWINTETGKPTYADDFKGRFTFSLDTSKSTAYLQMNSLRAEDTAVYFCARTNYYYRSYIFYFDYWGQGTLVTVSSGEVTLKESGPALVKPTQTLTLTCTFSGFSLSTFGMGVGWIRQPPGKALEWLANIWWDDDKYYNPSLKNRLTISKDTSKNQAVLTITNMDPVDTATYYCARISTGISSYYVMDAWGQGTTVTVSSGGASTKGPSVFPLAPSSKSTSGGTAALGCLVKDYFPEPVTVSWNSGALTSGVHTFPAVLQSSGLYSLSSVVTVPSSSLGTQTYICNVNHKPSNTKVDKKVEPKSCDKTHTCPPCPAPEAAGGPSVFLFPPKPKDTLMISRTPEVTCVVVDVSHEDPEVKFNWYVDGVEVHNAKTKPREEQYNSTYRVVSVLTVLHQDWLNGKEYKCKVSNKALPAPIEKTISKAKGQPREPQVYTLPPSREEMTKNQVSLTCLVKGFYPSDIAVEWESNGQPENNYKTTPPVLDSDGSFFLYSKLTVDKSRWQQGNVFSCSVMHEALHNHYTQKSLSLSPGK
light: DFQLTQSPSSLSASVGDRVTITCERSSGDIGDTYVSWYQQKPGKAPKNVIYGNDQRPSGVPSRFSGSGSGNSATLTISSLQPEDFATYFCQSYDSDIDIVFGQGTKVEIKGGGSGGGDTQLTQSPSSLSASVGDRVTISCRASESVSTHMHWYQQKPGKAPKLLIYGASNLESGVPSRFSGSGSGTDFTLTISSLQPEDFATYFCQQSWNDPFTFGQGTKVEIKGGGSGRTVAAPSVFIFPPSDEQLKSGTASVVCLLNNFYPREAKVQWKVDNALQSGNSQESVTEQDSKDSTYSLSSTLTLSKADYEKHKVYACEVTHQGLSSPVTKSFNRGEC
notes: Anti-human VEGF-A/anti-human PDGF-BB cross-over DVD-Ig (CO-DVD-Ig); also called PR-1565083
B6: CODV007 (bispecific antibody, human IgG1, kappa, L234A L235A)
heavy: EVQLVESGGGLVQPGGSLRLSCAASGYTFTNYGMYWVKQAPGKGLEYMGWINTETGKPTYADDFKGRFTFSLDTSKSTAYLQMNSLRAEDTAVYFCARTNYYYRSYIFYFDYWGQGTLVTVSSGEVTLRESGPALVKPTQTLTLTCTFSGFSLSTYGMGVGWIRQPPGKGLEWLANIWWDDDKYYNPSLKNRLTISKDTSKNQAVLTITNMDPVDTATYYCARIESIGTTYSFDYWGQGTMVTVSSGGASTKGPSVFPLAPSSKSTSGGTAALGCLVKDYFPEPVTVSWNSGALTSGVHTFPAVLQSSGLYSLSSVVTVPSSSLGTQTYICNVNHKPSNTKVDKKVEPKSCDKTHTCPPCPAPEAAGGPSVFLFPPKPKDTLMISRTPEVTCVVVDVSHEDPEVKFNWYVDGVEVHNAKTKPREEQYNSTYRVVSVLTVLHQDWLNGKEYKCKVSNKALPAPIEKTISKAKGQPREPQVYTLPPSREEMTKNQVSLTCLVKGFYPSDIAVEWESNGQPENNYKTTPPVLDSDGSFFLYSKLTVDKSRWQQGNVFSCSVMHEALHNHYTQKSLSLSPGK
light: B5 light with T33S, G52A, N53D, T74S, S95I, D96N
notes: Anti-human VEGF-A/anti-human PDGF-BB cross-over DVD-Ig (CO-DVD-Ig); also called PR-1565085
B7: CODV006 (bispecific antibody, human IgG1, kappa, L234A L235A)
heavy: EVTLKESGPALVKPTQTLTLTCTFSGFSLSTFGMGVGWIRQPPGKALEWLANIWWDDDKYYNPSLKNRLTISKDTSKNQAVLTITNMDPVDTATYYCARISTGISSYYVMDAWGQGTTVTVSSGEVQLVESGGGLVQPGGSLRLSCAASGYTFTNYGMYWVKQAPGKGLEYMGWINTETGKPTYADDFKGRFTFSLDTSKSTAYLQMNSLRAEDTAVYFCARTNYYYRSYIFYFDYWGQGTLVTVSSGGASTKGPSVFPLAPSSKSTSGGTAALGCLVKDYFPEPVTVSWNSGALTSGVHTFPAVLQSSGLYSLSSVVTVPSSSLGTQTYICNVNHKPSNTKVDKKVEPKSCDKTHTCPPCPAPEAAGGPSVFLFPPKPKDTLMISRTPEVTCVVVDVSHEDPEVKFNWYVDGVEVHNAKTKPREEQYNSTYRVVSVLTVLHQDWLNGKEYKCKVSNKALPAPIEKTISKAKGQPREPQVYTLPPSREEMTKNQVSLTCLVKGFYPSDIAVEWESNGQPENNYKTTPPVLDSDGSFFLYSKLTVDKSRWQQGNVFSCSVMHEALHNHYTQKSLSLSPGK
light: DTQLTQSPSSLSASVGDRVTISCRASESVSTHMHWYQQKPGKAPKLLIYGASNLESGVPSRFSGSGSGTDFTLTISSLQPEDFATYFCQQSWNDPFTFGQGTKVEIKGGGSGGGDFQLTQSPSSLSASVGDRVTITCERSSGDIGDTYVSWYQQKPGKAPKNVIYGNDQRPSGVPSRFSGSGSGNSATLTISSLQPEDFATYFCQSYDSDIDIVFGQGTKVEIKGGGSGRTVAAPSVFIFPPSDEQLKSGTASVVCLLNNFYPREAKVQWKVDNALQSGNSQESVTEQDSKDSTYSLSSTLTLSKADYEKHKVYACEVTHQGLSSPVTKSFNRGEC
notes: Anti-human VEGF-A/anti-human PDGF-BB cross-over DVD-Ig (CO-DVD-Ig); also called PR-1565084
B8: CODV008 (bispecific antibody, human IgG1, kappa, L234A L235A)
heavy: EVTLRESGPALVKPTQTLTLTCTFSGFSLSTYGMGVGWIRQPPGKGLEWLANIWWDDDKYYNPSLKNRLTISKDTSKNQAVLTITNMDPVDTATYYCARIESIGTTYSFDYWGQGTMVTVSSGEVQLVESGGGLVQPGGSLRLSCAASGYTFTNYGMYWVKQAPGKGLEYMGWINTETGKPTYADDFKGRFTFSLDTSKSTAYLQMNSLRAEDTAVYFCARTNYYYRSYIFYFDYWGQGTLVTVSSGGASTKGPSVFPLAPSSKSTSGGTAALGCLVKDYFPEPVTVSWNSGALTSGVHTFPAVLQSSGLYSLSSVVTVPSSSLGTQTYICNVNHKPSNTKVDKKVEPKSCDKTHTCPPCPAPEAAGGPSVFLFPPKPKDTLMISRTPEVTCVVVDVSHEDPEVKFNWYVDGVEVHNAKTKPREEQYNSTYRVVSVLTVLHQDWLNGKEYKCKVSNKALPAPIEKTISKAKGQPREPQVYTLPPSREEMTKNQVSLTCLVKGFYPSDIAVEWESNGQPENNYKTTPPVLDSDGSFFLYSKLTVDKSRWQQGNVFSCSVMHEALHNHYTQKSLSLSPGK
light: B7 light with T147S, G166A, N167D, T188S, S209I, D210N
notes: Anti-human VEGF-A/anti-human PDGF-BB cross-over DVD-Ig (CO-DVD-Ig); also called PR-1565086
B9: CODV011 (bispecific antibody, human IgG1, kappa, L234A L235A)
heavy: EVQLVQSGSELKKPGASVKVSCKASGYTFTNYGMYWVRQAPGQGLEWMGWINTETGKPTYADDFKGRFVFSLDTSVSTAYLQISSLKAEDTAVYYCARTNYYYRSYIFYFDYWGQGTMVTVSSGGGGSGGGGSEFVLTQSPGTLSLSPGERATLSCERSSGDIGDSYVSWYQQKPGQAPRLVIYADDQRPSGIPDRFSGSGSGTDFTLTISRLEPEDFAVYYCQSYDINIDIVFGGGTKVEIKGGGSGASTKGPSVFPLAPSSKSTSGGTAALGCLVKDYFPEPVTVSWNSGALTSGVHTFPAVLQSSGLYSLSSVVTVPSSSLGTQTYICNVNHKPSNTKVDKKVEPKSCDKTHTCPPCPAPEAAGGPSVFLFPPKPKDTLMISRTPEVTCVVVDVSHEDPEVKFNWYVDGVEVHNAKTKPREEQYNSTYRVVSVLTVLHQDWLNGKEYKCKVSNKALPAPIEKTISKAKGQPREPQVYTLPPSREEMTKNQVSLTCLVKGFYPSDIAVEWESNGQPENNYKTTPPVLDSDGSFFLYSKLTVDKSRWQQGNVFSCSVMHEALHNAYTQKSLSLSPGK
light: EVTLRESGPALVKPTQTLTLTCTFSGFSLSTYGMGVGWIRQPPGKALEWLANIWWDDDKYYNPSLKNRLTISKDTSKNQVVLTMTNMDPVDTATYYCARIESIGTTYSFDYWGQGTMVTVSSGGGGSGGGGSDTVLTQSPATLSLSPGERATLSCRASESVSTHMHWYQQKPGQAPRLLIYGASNLESGVPARFSGSGSGTDFTLTISSLEPEDFAVYFCQQSWNDPFTFGQGTKLEIKGGGSGRTVAAPSVFIFPPSDEQLKSGTASVVCLLNNFYPREAKVQWKVDNALQSGNSQESVTEQDSKDSTYSLSSTLTLSKADYEKHKVYACEVTHQGLSSPVTKSFNRGEC
notes: Anti-human VEGF-A/anti-human PDGF-BB cross-over DVD-Ig (CO-DVD-Ig); also called PR-1575521

The first assay deals with T1, Human VEGF-A 165 (human, UniProt P15692 207-395).
T1 construct: also called hVEGF165
T1 sequence (P15692 other isoform, or with tags, fused parts or gaps limits assumed): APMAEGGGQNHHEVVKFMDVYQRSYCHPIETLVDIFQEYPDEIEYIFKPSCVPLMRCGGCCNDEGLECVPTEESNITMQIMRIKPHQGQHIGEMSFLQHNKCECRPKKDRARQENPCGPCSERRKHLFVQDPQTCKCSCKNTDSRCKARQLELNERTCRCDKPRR
Put plainly: SPR (Biacore), method of Example 1.1. Here is the method:
(§1) Unreacted moieties on the biosensor surface were blocked with ethanolamine. For kinetic analysis, rate equations derived from the 1:1 Langmuir binding model were fitted simultaneously to multiple antigen injections (using global fit analysis) with the use of Scrubber 2 (BioLogic Software), Biacore Biaevaluation 4.0.1 software or Biacore T100 Evaluation software. Purified antibodies or DVD-Ig molecules were diluted in running buffer for capture across goat anti-human Fc reaction surfaces. Antibodies or DVD-Ig molecules to be captured as a ligand (1 μg/ml) were injected over reaction matrices at a flow rate of 10 μl/minute. During the assay, all measurements were referenced against the capture surface alone (i.e., with no captured antibody or DVD-Ig molecule). […] The equilibrium dissociation constant KD (M) of the reaction between antibodies and the target antigen was then calculated from the kinetic rate constants by the following formula: KD=Koff/Kₒₙ. Binding was recorded as a function of time and kinetic rate constants were calculated. In this assay, on-rates as fast as 10⁶M⁻¹s⁻¹ and off-rates as slow as 10⁻⁶ s⁻¹ could be measured.
(In general: Surface plasmon resonance follows binding to a sensor surface in real time, without labels.)
Consider B1, for which the binding result is “no binding”.
The Kd is the concentration at which binding is half-saturated. A low value points to higher affinity. Usually kon stands for the second-order rate constant of association. In turn, B2 registered a Kd of 6.6 nM and a kon of 57000 M⁻¹ s⁻¹.
B3 displayed a Kd of 26 nM.
Turning to B4, the binding result was “no binding”.
For B5, the Kd amounted to 35 nM. This lies in the double-digit nanomolar range.
As for B6, the Kd was found to be 22 nM.
Regarding B7, the binding result is reported as “no binding”.
The same measure, in the same setting: the same measure for B8: “no binding”.
B9: the Kd stood at 0.038 nM and the kon turned out to be 1.1e+06 M⁻¹ s⁻¹.

The next assay deals with T2, Human PDGF-BB (human, UniProt P01127 82-190).
T2 construct: also called hPDGF-BB
T2 sequence (P01127 82-190 limits assumed): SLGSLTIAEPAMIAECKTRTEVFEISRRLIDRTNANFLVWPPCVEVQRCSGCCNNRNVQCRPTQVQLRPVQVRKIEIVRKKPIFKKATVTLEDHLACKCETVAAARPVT
The assay is described as follows: SPR (Biacore), method of Example 1.1. As for the experimental part:
as §1
Consider B1, for which binding was characterised by a dissociation constant (Kd) of 0.011 nM and the kon was 2.3e+07 M⁻¹ s⁻¹.
The matching figures for B2: 0.004 nM and 4.1e+07 M⁻¹ s⁻¹.
For B3, in that order: 0.0056 nM and 3.5e+07 M⁻¹ s⁻¹.
On to B4, for which binding was put at a Kd of 0.087 nM and the kon came out at 1e+07 M⁻¹ s⁻¹.
The molecule B5 yielded a Kd of 0.011 nM and a kon of 1.2e+07 M⁻¹ s⁻¹.
For B6, the Kd worked out at 0.0073 nM and the kon is 2.9e+07 M⁻¹ s⁻¹.
B7: the Kd stood at 0.0097 nM and the association rate constant (kon) came to 2.2e+07 M⁻¹ s⁻¹.
For the molecule B8, binding was put at a Kd of 0.0074 nM and the kon was 1.7e+07 M⁻¹ s⁻¹.
B9: the affinity, expressed as Kd, was 0.0018 nM and the kon turned out to be 3.8e+07 M⁻¹ s⁻¹.
